Laboratory results taken from paper PMC8934652.

Key:
[1] = target: T1, CELF1 RRM1/2 (UniProt Q92879 1-187); assay: FP
[2] = target: CELF1 RRM1/2 S147A (UniProt Q92879 1-187, S147A); assay: FP
[3] = target: T1, CELF1 RRM1/2; assay: FP competition

T1 sequence (Q92879 1-187): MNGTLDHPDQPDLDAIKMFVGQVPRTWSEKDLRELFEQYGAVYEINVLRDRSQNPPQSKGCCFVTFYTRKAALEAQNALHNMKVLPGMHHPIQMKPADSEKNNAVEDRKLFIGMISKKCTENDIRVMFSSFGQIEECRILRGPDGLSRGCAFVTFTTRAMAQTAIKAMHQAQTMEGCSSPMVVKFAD
Chain of CELF1 RRM1/2 S147A (Q92879 1-187 S147A): as the sequence (Q92879 1-187) above, with S147A counted along it

| Binder | binding result [1] | binding result [2] | binding result [3] |
| --- | --- | --- | --- |
| UUGUUGUU (ssRNA) [GU probe] | binds | binds |  |
| UUGUUGUU (ssRNA) [GU cold probe] |  |  | binds |
